Reference: patent US9228015B2, “Nogo receptor antagonists and methods of increasing neurite outgrowth” (Biogen Idec MA Inc., priority 2006, dated 2016)

B1: sNogoR310: soluble Nogo receptor-1 polypeptide, residues 26-310 of SEQ ID NOs: 7 and 9 or 27-310 of SEQ ID NO: 9; mouse form in transgenic mice (protein, listed as Homo sapiens)
chain: PCPGACVCYNEPKVTTSCPQQGLQAVPVGIPAASQRIFLHGNRISHVPAASFRACRNLTILWLHSNVLARIDAAAFTGLALLEQLDLSDNAQLRSVDPATFHGLGRLHTLHLDRCGLQELGPGLFRGLAALQYLYLQDNALQALPDDTFRDLGNLTHLFLHGNRISSVPERAFRGLHSLDRLLLHQNRVAHVHPHAFRDLGRLMTLYLFANNLSALPTEALAPLRALQYLRLNDNPWVCDCRARPLWAWLQKFRGSSSEVPCSLPQRLAGRDLKRLAANDLQGCA
B2: sNogoR344-Fc: fusion protein of residues 26-344 of rat Nogo receptor-1 and hinge and Fc region of rat IgG1 (protein)
chain: PCPGACVCYNEPKVTTSRPQQGLQAVPAGIPASSQRIFLHGNRISYVPAASFQSCRNLTILWLHSNALAGIDAAAFTGLTLLEQLDLSDNAQLRVVDPTTFRGLGHLHTLHLDRCGLQELGPGLFRGLAALQYLYLQDNNLQALPDNTFRDLGNLTHLFLHGNRIPSVPEHAFRGLHSLDRLLLHQNHVARVHPHAFRDLGRLMTLYLFANNLSMLPAEVLVPLRSLQYLRLNDNPWVCDCRARPLWAWLQKFRGSSSGVPSNLPQRLAGRDLKRLATSDLEGCAVASGPFRPFQTNQLTDEELLGLPKCCQPDAADKA
modifications: left off: a dimerising Fc or GST
notes: fusion protein of residues 26-344 of rat Nogo receptor-1 and hinge and Fc region of rat IgG1

Columns and labels:
[1] = tested on: mice with dorsal over-hemisection injury; assay: gfap::sNogoR310 transgenic mice, dorsal over-hemisection: axon tracing and serotonin fiber analysis; type: in vivo, mouse
Text: We cloned the mouse sNogoR310 cDNA (corresponding to amino acids 1-310 of the Nogo receptor-1) into the Nod site of the C-3123 vector. In this vector, sNogoR310 expression is under the control of the glial fibrillary acidic protein (gfap) gene regulatory elements, which allow high level expression with enhanced secretion from reactive astrocytes at site of injury. We digested the resulting vector sequentially with AatII and SfiI and isolated the gfap::sNogoR310 construct on a 3.4 kb fragment. We microinjected this fragment into embryos to generate transgenic mice. We verified by PCR that the transgene had integrated and identified five founder lines. We crossed heterozygous males of the two founder lines with the highest expression levels to female C57BL/6J mice. We confirmed that the GFAP-positive cells express and secrete sNogoR310 in heterozygous transgenic mice by Western blot analysis using antibody raised against Nogo receptor-1.
We deeply anesthetized adult female heterozygous transgenic or littermate WT mice (10-16 weeks of age) and performed a complete laminectomy, fully exposing the dorsal part of spinal cord at T6 and T7 levels. We performed a dorsal over-hemisection at T6 with a 30-gauge needle and a pair of microscissors to completely sever the dorsal and dorsolateral corticospinal tracts (CSTs). We passed a marked needle across the dorsal part of the spinal cord several times to assure that the lesion was at a depth of 1.0 mm. We sutured the muscle layers over the laminectomies and closed the skin on the back with surgical staples. To trace the corticospinal tracts, we made a burr hole overlying cerebral cortex on the right side into the skull 14 days after spinal cord injury. We applied the tracer BDA (MW 10,000, 10% in PBS) (Molecular Probes, Eugene, Oreg.) to 4 injection sites at a depth of 0.7 mm from the cortical surface, Four weeks after injury, the mice were perfused transcardially with PBS, followed by 4% paraformaldehyde.
We investigated the integrity of descending corticospinal tracts (CST) by injecting anterograde tracer biotin dextran amine (BDA) into the right motor cortex as described in Li and Strittmatter, J. Neurosci. 23:4219-27 (2003). In littermate WT mice, the prominent dorsal CST (dCST) is tightly bundled rostral to the lesion, and a few dorsolateral CST fibers are visible ipsilaterally. A small number of BDA-labeled short collateral sprouts project into gray matter, particularly in the ventral cord, but the sprouting is largely confined to the side of the cord contralateral to the tracer injection. However, the sections rostral to dorsal hemisection from injured sNogoR310 transgenic mice indicate a quite different BDA labeling pattern. A high density of BDA-labeled CST fibers are observed outside of prominent dCST in all the transgenic mice from line Tg08 or line Tg01. Ectopic fibers extend throughout the gray matter area, and some fibers reach into lateral and dorsolateral white matter. Several fibers (4-12 sprouts per transverse section) are seen on the opposite side of the spinal cord (ipsilateral to the tracer injection site). Micro densitometric measurement of the collateral sprouts indicates approximately a tenfold increase in sprouting density in sNogoR310 transgenic mice. […]

[2] = tested on: NogoA, NogoB, NogoC, MAG and OM-gp binding to Nogo receptor-1; assay: Soluble Nogo receptors block ligand binding to Nogo receptor-1
[3] = tested on: DRG neurons, myelin-mediated inhibition of neurite outgrowth; assay: Neurite outgrowth assay, P3-4 rat DRG neurons, myelin mixed with test protein (Example 10); type: cell-based; conditions: mixed with CNS myelin, FIGS. 9-11
Description: Lab-Tek® culture slides (4 wells) were coated with 0.1 mg/ml poly-D-lysine (Sigma®). CNS myelin alone or mixed with sNogoR310, sNogoR310-Fc fusion protein, mAb 5B10 or control PBS were separately spotted as 3 μl drops. Fluorescent microspheres (Polysciences) were added to the myelin/PBS to allow later identification of the drops (Grandpre et al., Nature 403:439-444 (2000)). Lab-Tek® slides were then rinsed and coated with 10 μg/ml laminin (Gibco™).
Dorsal root ganglions (DRG's) from P3-4 Sprague Dawley rat pups were dissociated with 1 mg/ml collagenase type 1 (Worthington), triturated with fire-polished Pasteur pipettes pre-plated to enrich in neuronal cells and finally plated at 23,000 cells/well on the pre-coated Labtek culture slides. The culture medium was F12 containing 5% heat inactivated donor horse serum, 5% heat inactivated fetal bovine serum and 50 ng/ml mNGF and incubated at 37° C. and 5% CO2 for 6 hours.
Slides were fixed for 20 minutes with 4% paraformaldehyde containing 20% sucrose and stained for the neuronal marker anti beta-III-tubulin (Covance TUJ1) diluted 1:500. As secondary antibody anti-mouse Alexa Fluor® 594 (Molecular Probes) was diluted 1:300 and slides were coverslipped with Gel/Mount™ (Biømeda™). 5× digital images were acquired with OpenLab™ software and analyzed by using the MetaMorph® software for quantification of neurite outgrowth.

[4] = tested on: mice with dorsal over-hemisection injury; assay: gfap::sNogoR310 transgenic mice, dorsal over-hemisection: behavioral tests; type: in vivo, mouse
Text: The Basso-Beattie-Bresnahan (BBB) locomotor rating scale (Basso et al., Neurotrauma 13:343-359 (1996)), the inclined plane test and the inclined grid walking test (Li and Strittmatter, J Neurosci. 23:4219-27 (2003)) were monitored in rats and mice after injury. For the inclined plane test, we measured the maximal angle to which a 50 cm×60 cm board could be angled for 5 sec without the mouse sliding off. For inclined grid walking, the mice were trained to climb a wire grid (35 cm long with 2.54 cm squares) at a slope of 45 degrees. The number of instances in which the hindpaw dropped below the grid plane was scored for each excursion from bottom to top. For the rat behavioral testing, BBB locomotor scale, grid walking and footprint analysis were performed. For grid walking, the rats were trained to walk on a wire grid (70 cm long with 2.54 an squares), and the number of instances in which the hindpaw dropped below the grid plane was counted. For footprint analysis, the walking patterns of rat hindpaws were recorded with ink during a continuous locomotion across a 90 cm runway, and stride length on each side and stride width were calculated (Metz et al., Brain Res. 883:165-177 (2000)). All of these behavioral tests were performed by at least two individuals. Throughout the surgery, behavioral testing and histologic analysis, researchers were blind to the identity of the compound in the minipump.
We deeply anesthetized adult female heterozygous transgenic or littermate WT mice (10-16 weeks of age) and performed a complete laminectomy, fully exposing the dorsal part of spinal cord at T6 and T7 levels. We performed a dorsal over-hemisection at T6 with a 30-gauge needle and a pair of microscissors to completely sever the dorsal and dorsolateral corticospinal tracts (CSTs). We passed a marked needle across the dorsal part of the spinal cord several times to assure that the lesion was at a depth of 1.0 mm. We sutured the muscle layers over the laminectomies and closed the skin on the back with surgical staples. […]

[5] = tested on: chick neurons; assay: Neurite outgrowth assay using chick neurons; type: cell-based
[6] = tested on: P6 DRG neurons; assay: Neuro-protection assay, P6-7 rat DRG neurons with or without laminin; type: cell-based
Description: We also tested the neuro-protective effect of soluble Nogo receptors by performing experiments with cells grown in the presence and absence of laminin. Neuronal cell growth in media without laminin is poor and models neuronal stress conditions.
DRG's were dissected from post-natal day 6-7 rat pups (P6-7), dissociated into single cells and plated on 96-well plates pre-coated with poly-D-lysine as described above. In some wells 2 μg/ml laminin was added for 2-3 hours and rinsed before the cells were plated. After an 18-20 h incubation the plates were fixed with 4% para-formaldehyde, stained with rabbit anti-Beta-III-tubulin antibody diluted 1:500 (Covance®) and anti-HuC/D diluted 1:100 (Molecular Probes), and fluorescent secondary antibodies (Molecular Probes) were added at 1:200 dilution. The ArrayScan® II (Cellomics®) was used to capture 5× digital images and to quantify neurite outgrowth as average neurite outgrowth/neuron per well, by using the Neurite outgrowth application. Nine 5× images from 3 wells/condition were analyzed.
(§1) sNogoR344-Fc or rat IgG were added in solution to P6-7 DRG neurons and to differentiated Neuroscreen™ cells at the time of plating.

[7] = tested on: Neuroscreen cells (sub-clone of PC12 cells); assay: Neuro-protection assay, differentiated Neuroscreen cells with or without laminin; type: cell-based; conditions: same concentrations, absence of laminin
Description: In some experiments, a sub-clone of PC12 cells (Neuroscreen™) was used (Cellomics®). The Neuroscreen™ cells were pre-differentiated for 7 days with 200 ng/ml NGF, detached and replated on 96-well plates pre-coated with poly-D-lysine. In some wells 5 μg/ml laminin was added for 2-3 hours and rinsed before the cells were plated. After 2 days incubation the plates were fixed with 4% paraformaldehyde, stained with rabbit anti-Beta-III-tubulin antibody diluted 1:500 (Covance®) and Hoechst (nuclear stain). The ArrayScan® II was used to quantify neurite outgrowth as in the DRG cells.
as §1

block of binding of NogoA, NogoB, NogoC, MAG and OM-gp to Nogo receptor-1 [2] | Molecule | BDA-labeled regenerating fibers coursing in the rostral-caudal axis ([1]; any level 1-4 mm caudal to the lesion, each transgenic mouse) | fibers on the opposite side of the spinal cord (ipsilateral to the tracer injection site) ([1]; rostral to dorsal hemisection, transgenic mice) | CST sprouting ([1]; secreted from astrocytes in transgenic mice) | total length of serotonin fibers in the ventral horn of caudal spinal cord ([1]; transgenic vs WT group) | increase in collateral sprouting density (micro densitometric measurement) ([1]; transgenic vs WT mice) | protection of DRG neurons from myelin-mediated inhibition of neurite outgrowth [3] | sustainable angle on inclined plane ([4]; days 7-28 after injury vs control) | BBB scores ([4]; lines Tg08 and Tg01 vs control, 7-28 days) | inclined grid climbing errors ([4]; post-injury, FIG. 13D) | protection in similar assay using chick neurons [5] | neuro-protective effect ([6]; 1 μM and 10 μM, absence of laminin) | quantification of neurite outgrowth ([6]; absence of laminin) | effect on DRG neurons growing on a laminin substrate ([6]; same concentrations, laminin substrate) | neuro-protective effect [7]
block | B1 | 5-15 | 4-12 sprouts per transverse section | induces CST sprouting | much greater number | tenfold | protected | significantly greater | significantly higher | progressive improvement | protective | – | – | – | –
– | B2 | – | – | – | – | – | – | – | – | – | – | observed | dose-dependent increase | did not produce any unusual effect | seen
